Measured values as given in the supplement of paper PMC10126150.
± gives the standard deviation of the averaged measurements.

Tested on: ATP
Assay: switch fluorescence ratio, 500 uM ATP over buffer (Cy3 cluster intensity, sum of 5 cycles each) (fold (ratio)); higher = stronger signal-on switching upon ATP binding; sequences stand for … in TCGTCGGCAGCGTCAGATGTGTATAAGAGACAGTTTTTTTTTTTTTTTTTTTTTTTTT…TC
Details: aptamer strand: ATP DNA aptamer (quencher-CACCTGGGGGAGTATTGCGGAGGAAGG + anchor), 100 nM annealed; ATP concentration: 500 uM
Summary of the method: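 Switching-strand clusters labelled with Cy3 on a modified Illumina MiSeq flow-cell were annealed to 100 nM quencher-labelled ATP aptamer, imaged in selection buffer, and re-imaged after 15 min with 500 uM ATP at 22 °C. This was done over five cycles with NaOH stripping and re-annealing in between. The fluorescence ratio is summed target-cycle over summed buffer-cycle Cy3 intensity per cluster, averaged per switch-domain sequence, excluding clusters outside 100-1000 RFU.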
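Note: ATP exposure 15 min at 22 °C before imaging.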

Sequence | switch fluorescence ratio
TGGGAACTCT | 0.994 ± 0.012
TGGGAAGTTG | 0.956 ± 0.04
TGGGAATAGG | 0.993 ± 0.019
TGGGAATAGT | 1 ± 0.049
TGGGAATGTT | 1.01 ± 0.011
TGGGAATTAA | 0.979 ± 0.04
TGGGAATTGT | 1 ± 0.026
TGGGACCCTT | 1.06 ± 0.023
TGGGACGACG | 0.991 ± 0.022
TGGGACTGTT | 0.986 ± 0.028
TGGGAGAGGA | 1.02 ± 0.049
TGGGAGAGTT | 0.993 ± 0.023
TGGGAGATAT | 1 ± 0.028
TGGGAGCATA | 1.05 ± 0.022
TGGGAGCCCG | 0.9853 ± 0.0034
TGGGAGCGGT | 0.995 ± 0.007
TGGGAGGATG | 1.01 ± 0.039
TGGGAGGGAA | 0.995 ± 0.013
TGGGAGGGTA | 0.982 ± 0.022
TGGGAGGTCG | 1.09 ± 0.03
TGGGAGTCGG | 1.01 ± 0.035
TGGGAGTGGT | 1 ± 0.003
TGGGATACAG | 0.982 ± 0.026
TGGGATACGT | 1.55 ± 0.79
TGGGATCGTC | 0.966 ± 0.042

Sequence | switch fluorescence ratio
TGGGATGAGT | 1.007 ± 0.0081
TGGGATTGCG | 1.04 ± 0.012
TGGGATTGGC | 1.01 ± 0.11
TGGGATTTCA | 0.979 ± 0.045
TGGGATTTTT | 0.985 ± 0.031
TGGGCCGCTT | 1.04 ± 0.028
TGGGCCGGTA | 1.02 ± 0.031
TGGGCGATAG | 1.02 ± 0.027
TGGGCGATAT | 1.95 ± 1.1
TGGGCGCGGT | 0.975 ± 0.018
TGGGCGGCTT | 0.97 ± 0.011
TGGGCGGGAG | 0.993 ± 0.039
TGGGCGGGAT | 1 ± 0.039
TGGGCTGGCT | 1 ± 0.023
TGGGCTTTGG | 0.9992 ± 0.009
TGGGCTTTTT | 0.982 ± 0.041
TGGGGAACAC | 0.995 ± 0.043
TGGGGAACG | 0.9595 ± 0.006
TGGGGAACGC | 1.01 ± 0.034
TGGGGAAGAG | 1.02 ± 0.027
TGGGGAAGGA | 0.99 ± 0.018
TGGGGACAGC | 0.949 ± 0.027
TGGGGACAGT | 1 ± 0.017
TGGGGACTCC | 0.997 ± 0.032
TGGGGACTGG | 1.04 ± 0.088

Sequence | switch fluorescence ratio
TGGGGACTTA | 1.012 ± 0.0089
TGGGGAGAAG | 0.994 ± 0.013
TGGGGAGCAT | 1.01 ± 0.044
TGGGGAGCTT | 0.99 ± 0.023
TGGGGAGGAT | 0.974 ± 0.023
TGGGGATTGC | 1.02 ± 0.048
TGGGGCAACG | 0.979 ± 0.034
TGGGGCCCTT | 1.04 ± 0.02
TGGGGCGACG | 0.994 ± 0.034
TGGGGCGGGA | 1.02 ± 0.08
TGGGGCGGTT | 0.979 ± 0.024
TGGGGCGTCG | 1 ± 0.037
TGGGGCTAAG | 1.01 ± 0.034
TGGGGCTATT | 1.02 ± 0.045
TGGGGCTGTG | 0.991 ± 0.014
TGGGGGAAAA | 0.986 ± 0.01
TGGGGGACTT | 0.99 ± 0.039
TGGGGGAGAT | 1.04 ± 0.1
TGGGGGAGCC | 1.03 ± 0.041
TGGGGGAGTA | 0.952 ± 0.018
TGGGGGCACT | 0.982 ± 0.022
TGGGGGCTAC | 1 ± 0.01
TGGGGGGAAT | 1.03 ± 0.1
TGGGGGGACG | 1.03 ± 0.086
TGGGGGGAG | 1.0137 ± 0.00093

Sequence | switch fluorescence ratio
TGGGGGGAGG | 1 ± 0.036
TGGGGGGAGT | 1.01 ± 0.024
TGGGGGGATG | 0.996 ± 0.011
TGGGGGGGAC | 1.04 ± 0.069
TGGGGGGGG | 1.01 ± 0.05
TGGGGGGTAG | 0.988 ± 0.02
TGGGGGTAGT | 0.99 ± 0.022
TGGGGGTCGT | 1.02 ± 0.024
TGGGGGTGGT | 1 ± 0.028
TGGGGGTTGT | 0.987 ± 0.025
TGGGGTAATC | 1.03 ± 0.07
TGGGGTAGGA | 0.988 ± 0.029
TGGGGTATAC | 1.02 ± 0.038
TGGGGTATCT | 1 ± 0.019
TGGGGTGACA | 1.01 ± 0.054
TGGGGTGAGG | 1 ± 0.035
TGGGGTGCCG | 1.12 ± 0.039
TGGGGTGGTT | 1.03 ± 0.015
TGGGGTTAAA | 0.997 ± 0.016
TGGGGTTCGT | 0.998 ± 0.066
TGGGGTTCTG | 0.9832 ± 0.0022
TGGGGTTTAT | 1.01 ± 0.02
TGGGGTTTGG | 0.984 ± 0.036
TGGGTAAAAT | 0.971 ± 0.03
TGGGTAAAGG | 0.956 ± 0.015
